The assay concerns HEK293 cells. Description: Cell cycle distribution after release from double thymidine block, flow cytometry. The assay is classed as cell-based. Here is the method: In the case of a double thymidine block (DTB) synchronized at the G1/S boundary, HEK293 cells were incubated with 2 mM thymidine for 16 hours and maintained in a normal medium for 10 hours, and then 2 mM thymidine was further added thereto for 16 hours.
For analysis of cell cycles or sub-G1 DNA contents, cells were immobilized with 80% ice-cold ethanol, and stored at 4° C. The cells were stained with PBS containing 50 ug/ml of propidium iodide (PI) and 100 ug/ml of RNase A at 37° C. for 30 minutes. DNA content was analyzed by FACS Calibur flow cytometry and the results thereof were analyzed using Cellquest software (Becton-Dickinson Immunocytometry Systems, San Diego, Calif.) and Modfit LT 3.3 software. At least 10,000 cells were analyzed per sample.
To evaluate whether the reduced cell growth observed in RARRES1-overexpressing cells was due to altered cell cycle progression, HEK293 cells were transfected with green fluorescent protein (GFP) tagged-RARRES1 or -empty vector (Ctrl) according to the method of Example 1-1, and the cells were observed by live cell imaging according to Example 1-6. From now on, all data shown was regarded as isoform 1 since there was no difference between the two isoforms of RARRES1 in the above experiments, and it was named ‘RARRES1.’ In HEK293 cells transfected with a GFP control (Ctrl) according to the method of Example 1-1, the cells underwent normal cell cycle progression. A cell entered into mitosis (round shape) within 1 hour, and was separated into two daughter cells within at least 2.5 hours (see FIG. 5A, top panel). […] To confirm mitotic arrest induced by RARRES1 overexpression, GFP-control or GFP-RARRES1-overexpressing 293 cells and 293 cells transfected with a red fluorescent protein (RFP) lentivirus used to label GFP non-transfected cell, according to Example 1-3 were co-cultured, and changes in the number of fluorescence-expressing cells (see FIG. 5B) were monitored. […] Under co-culture conditions of GFP-control coupled with RFP virus-transfected cells, the numbers of both fluorescence-expressing cells were increased over time. […]

The results in this text go back to US20220026415A1, “A METHOD FOR SCREENING A THERAPEUTIC AGENT FOR CANCER USING BINDING INHIBITOR OF CYCLIN-DEPENDENT KINASE 1 (CDK1)-CYCLIN B1 AND RETINOIC ACID RECEPTOR RESPONDER 1 (RARRES1) GENE KNOCKOUT ANIMAL MODEL” (NATIONAL CANCER CENTER, priority 2018, published 2022).

B1: RARRES1: RARRES1 isoform 1 overexpressed in HEK293 cells by transfection with an expression vector (protein)
chain: MQPRRQRLPAPWSGPRGPRPTAPLLALLLLLAPVAAPAGSGDPDDPGQPQDAGVPRRLLQQAARAALHFFNFRSGSPSALRVLAEVQEGRAWINPKEGCKVHVVFSTERYNPESLLQEGEGRLGKCSARVFFKNQKPRPTINVTCTRLIEKKKRQQEDYLLYKQMKQLKNPLEIVSIPDNHGHIDPSLRLIWDLAFLGSSYVMWEMTTQVSHYYLAQLTSVRQWKTNDDTIDFDYTVLLHELSTQEIIPCRIHLVWYPGKPLKVKYHCQELQTPEEASGTEEGSAVVPTELSNF
For the molecule B1, the “cells in the G2/M phases” value is 29.85% (4 hours after release from DTB, control 21.38%); 80.91% (6 hours after release from DTB, control 77.41%); 54.46% (8 hours after release from DTB, control 45.47%).
